Measurements reported in publication PMC12102759 (2025).

B1: SH3BP2 peptide 408-423 (SH3 domain-binding protein 2), 16-mer library wild type / TNKS ANK (TNKS 12 ANK repeats, residues 174-649) (parent complex)
chain 1: PQLPHLQRSPPDGQSF
chain 2: TGVPAVSGALRELLEACRNGDVSRVKRLVDAANVNAKDMAGRKSSPLHFAAGFGRKDVVEHLLQMGANVHARDDGGLIPLHNACSFGHAEVVSLLLCQGADPNARDNWNYTPLHEAAIKGKIDVCIVLLQHGADPNIRNTDGKSALDLADPSAKAVLTGEYKKDELLEAARSGNEEKLMALLTPLNVNCHASDGRKSTPLHLAAGYNRVRIVQLLLQHGADVHAKDKGGLVPLHNACSYGHYEVTELLLKHGACVNAMDLWQFTPLHEAASKNRVEVCSLLLSHGADPTLVNCHGKSAVDMAPTPELRERLTYEFKGHSLLQAAREADLAKVKKTLALEIINFKQPQSHETALHCAVASLHPKRKQVTELLLRKGANVNEKNKDFMTPLHVAAERAHNDVMEVLHKHGAKMNALDTLGQTALHRAALAGHLQTCRLLLSYGSDPSIISLQGFTAAQMGNEAVQQILSESTPIRTSD
B2: CBL peptide 538-553 (E3 ubiquitin-protein ligase CBL), 16-mer library wild type / YES SH3 (YES1 SH3 domain, residues 90-152) (parent complex)
chain 1: TLRDLPPPPPPDRPYS
chain 2: not shown

Variants of: B1
Assay: proteomic peptide phage display deep mutational scan (ProP-PD DMS): M13 P8 16-mer library selected against immobilised GST-tagged bait for four days (rounds), NGS of the eluted pools per day and pseudo-replica; bait immobilised on MaxiSorp plates (10 µg), library pre-cleared on GST, 2 h binding at 4 °C, five washes; one round per day, days 1-4; value from days 2 and 3
For chain 1 PQPPHLQRSPPDGQSF [chain 1 L3P], the screen value was 0.000341 average fractional NGS count over selection days 2 and 3 (reads of this peptide / all reads for the bait, averaged over …. For chain 1 PQRPHLQRSPPDGQSF [chain 1 L3R], the screen value was 0.000308 average fractional NGS count over selection days 2 and 3 (reads of this peptide / all reads for the bait, averaged over …. With chain 1 PQNPHLQRSPPDGQSF [chain 1 L3N] the screen value was 0.000433 average fractional NGS count over selection days 2 and 3 (reads of this peptide / all reads for the bait, averaged over …. In the case of chain 1 PQVPHLQRSPPDGQSF [chain 1 L3V], the screen value is reported as 0.000203 average fractional NGS count over selection days 2 and 3 (reads of this peptide / all reads for the bait, averaged over …. In the case of chain 1 PQLPQLQRSPPDGQSF [chain 1 H5Q], the screen value is reported as 0.00258 average fractional NGS count over selection days 2 and 3 (reads of this peptide / all reads for the bait, averaged over …. In the case of chain 1 PQLPVLQRSPPDGQSF [chain 1 H5V], the screen value is reported as 0.000333 average fractional NGS count over selection days 2 and 3 (reads of this peptide / all reads for the bait, averaged over …. chain 1 PQLPFLQRSPPDGQSF [chain 1 H5F] was tested, and the screen value was 0.00112 average fractional NGS count over selection days 2 and 3 (reads of this peptide / all reads for the bait, averaged over …. In the case of chain 1 PQLPSLQRSPPDGQSF [chain 1 H5S], the screen value is reported as 0.000337 average fractional NGS count over selection days 2 and 3 (reads of this peptide / all reads for the bait, averaged over …. For chain 1 PQLPHLQRSPPIGQSF [chain 1 D12I], the screen value was 0.000718 average fractional NGS count over selection days 2 and 3 (reads of this peptide / all reads for the bait, averaged over …. chain 1 PQLPHLQRSPPEGQSF [chain 1 D12E] was tested, and the screen value was 0.00128 average fractional NGS count over selection days 2 and 3 (reads of this peptide / all reads for the bait, averaged over …. In the case of chain 1 PQLPHLQRSPPQGQSF [chain 1 D12Q], the screen value is reported as 0.000387 average fractional NGS count over selection days 2 and 3 (reads of this peptide / all reads for the bait, averaged over ….

Variants of: B2
Assay: as above
For chain 1 P7G, the screen value was 0.000231 average fractional NGS count over selection days 2 and 3 (reads of this peptide / all reads for the bait, averaged over …. chain 1 P7T was tested, and the screen value was 0.000231 average fractional NGS count over selection days 2 and 3 (reads of this peptide / all reads for the bait, averaged over …. chain 1 P7M was tested, and the screen value was 0.000243 average fractional NGS count over selection days 2 and 3 (reads of this peptide / all reads for the bait, averaged over …. In the case of chain 1 P7A, the screen value is reported as 0.00162 average fractional NGS count over selection days 2 and 3 (reads of this peptide / all reads for the bait, averaged over …. With chain 1 P11T the screen value was 0.00257 average fractional NGS count over selection days 2 and 3 (reads of this peptide / all reads for the bait, averaged over …. With chain 1 P11D the screen value was 7.75e-05 average fractional NGS count over selection days 2 and 3 (reads of this peptide / all reads for the bait, averaged over …. For chain 1 P11K, the screen value was 0.00117 average fractional NGS count over selection days 2 and 3 (reads of this peptide / all reads for the bait, averaged over …. For chain 1 P11Y, the screen value was 0.00117 average fractional NGS count over selection days 2 and 3 (reads of this peptide / all reads for the bait, averaged over …. In the case of chain 1 P11R, the screen value is reported as 0.000288 average fractional NGS count over selection days 2 and 3 (reads of this peptide / all reads for the bait, averaged over …. With chain 1 L5I the screen value was 5.25e-05 average fractional NGS count over selection days 2 and 3 (reads of this peptide / all reads for the bait, averaged over …. chain 1 R3I was tested, and the screen value was 0.000159 average fractional NGS count over selection days 2 and 3 (reads of this peptide / all reads for the bait, averaged over …. chain 1 R3F was tested, and the screen value was 0.000372 average fractional NGS count over selection days 2 and 3 (reads of this peptide / all reads for the bait, averaged over …. With chain 1 R3K the screen value was 0.000536 average fractional NGS count over selection days 2 and 3 (reads of this peptide / all reads for the bait, averaged over …. chain 1 P10H was tested, and the screen value was 0.00108 average fractional NGS count over selection days 2 and 3 (reads of this peptide / all reads for the bait, averaged over …. chain 1 P10F was tested, and the screen value was 0.0021 average fractional NGS count over selection days 2 and 3 (reads of this peptide / all reads for the bait, averaged over …. chain 1 P10M was tested, and the screen value was 0.000512 average fractional NGS count over selection days 2 and 3 (reads of this peptide / all reads for the bait, averaged over …. For chain 1 P10A, the screen value was 0.000136 average fractional NGS count over selection days 2 and 3 (reads of this peptide / all reads for the bait, averaged over …. With chain 1 P10I the screen value was 0.00183 average fractional NGS count over selection days 2 and 3 (reads of this peptide / all reads for the bait, averaged over …. With chain 1 P10W the screen value was 0.00035 average fractional NGS count over selection days 2 and 3 (reads of this peptide / all reads for the bait, averaged over …. chain 1 P10S was tested, and the screen value was 0.00132 average fractional NGS count over selection days 2 and 3 (reads of this peptide / all reads for the bait, averaged over …. chain 1 P10N was tested, and the screen value was 0.000197 average fractional NGS count over selection days 2 and 3 (reads of this peptide / all reads for the bait, averaged over …. For chain 1 D4Y, the screen value was 0.00195 average fractional NGS count over selection days 2 and 3 (reads of this peptide / all reads for the bait, averaged over …. chain 1 D4S was tested, and the screen value was 7.92e-05 average fractional NGS count over selection days 2 and 3 (reads of this peptide / all reads for the bait, averaged over …. In the case of chain 1 D4H, the screen value is reported as 0.000257 average fractional NGS count over selection days 2 and 3 (reads of this peptide / all reads for the bait, averaged over …. With chain 1 D4T the screen value was 0.00181 average fractional NGS count over selection days 2 and 3 (reads of this peptide / all reads for the bait, averaged over …. In the case of chain 1 D4F, the screen value is reported as 5.77e-05 average fractional NGS count over selection days 2 and 3 (reads of this peptide / all reads for the bait, averaged over …. In the case of chain 1 Y15Q, the screen value is reported as 0.000766 average fractional NGS count over selection days 2 and 3 (reads of this peptide / all reads for the bait, averaged over …. For chain 1 Y15M, the screen value was 0.000526 average fractional NGS count over selection days 2 and 3 (reads of this peptide / all reads for the bait, averaged over …. With chain 1 Y15N the screen value was 7.8e-05 average fractional NGS count over selection days 2 and 3 (reads of this peptide / all reads for the bait, averaged over …. With chain 1 R13I the screen value was 0.000728 average fractional NGS count over selection days 2 and 3 (reads of this peptide / all reads for the bait, averaged over …. For chain 1 R13H, the screen value was 6.28e-05 average fractional NGS count over selection days 2 and 3 (reads of this peptide / all reads for the bait, averaged over …. For chain 1 R13F, the screen value was 0.000441 average fractional NGS count over selection days 2 and 3 (reads of this peptide / all reads for the bait, averaged over …. With chain 1 R13S the screen value was 0.000102 average fractional NGS count over selection days 2 and 3 (reads of this peptide / all reads for the bait, averaged over …. In the case of chain 1 R13T, the screen value is reported as 0.000227 average fractional NGS count over selection days 2 and 3 (reads of this peptide / all reads for the bait, averaged over …. chain 1 S16A was tested, and the screen value was 0.00886 average fractional NGS count over selection days 2 and 3 (reads of this peptide / all reads for the bait, averaged over …. With chain 1 S16Q the screen value was 9.78e-05 average fractional NGS count over selection days 2 and 3 (reads of this peptide / all reads for the bait, averaged over …. In the case of chain 1 S16H, the screen value is reported as 0.00402 average fractional NGS count over selection days 2 and 3 (reads of this peptide / all reads for the bait, averaged over …. chain 1 S16L was tested, and the screen value was 0.000883 average fractional NGS count over selection days 2 and 3 (reads of this peptide / all reads for the bait, averaged over …. chain 1 S16P was tested, and the screen value was 0.00387 average fractional NGS count over selection days 2 and 3 (reads of this peptide / all reads for the bait, averaged over …. In the case of chain 1 D12T, the screen value is reported as 0.00128 average fractional NGS count over selection days 2 and 3 (reads of this peptide / all reads for the bait, averaged over …. With chain 1 D12Q the screen value was 0.00108 average fractional NGS count over selection days 2 and 3 (reads of this peptide / all reads for the bait, averaged over …. For chain 1 D12V, the screen value was 0.00115 average fractional NGS count over selection days 2 and 3 (reads of this peptide / all reads for the bait, averaged over …. chain 1 L2M was tested, and the screen value was 0.00216 average fractional NGS count over selection days 2 and 3 (reads of this peptide / all reads for the bait, averaged over …. chain 1 L2A was tested, and the screen value was 0.00082 average fractional NGS count over selection days 2 and 3 (reads of this peptide / all reads for the bait, averaged over …. For chain 1 L2W, the screen value was 0.00229 average fractional NGS count over selection days 2 and 3 (reads of this peptide / all reads for the bait, averaged over …. With chain 1 L2E the screen value was 0.00558 average fractional NGS count over selection days 2 and 3 (reads of this peptide / all reads for the bait, averaged over …. For chain 1 P9A, the screen value was 0.000623 average fractional NGS count over selection days 2 and 3 (reads of this peptide / all reads for the bait, averaged over …. With chain 1 P9L the screen value was 0.000514 average fractional NGS count over selection days 2 and 3 (reads of this peptide / all reads for the bait, averaged over …. For chain 1 P14S, the screen value was 0.00038 average fractional NGS count over selection days 2 and 3 (reads of this peptide / all reads for the bait, averaged over …. In the case of chain 1 P14V, the screen value is reported as 0.0011 average fractional NGS count over selection days 2 and 3 (reads of this peptide / all reads for the bait, averaged over …. With chain 1 P14L the screen value was 0.00213 average fractional NGS count over selection days 2 and 3 (reads of this peptide / all reads for the bait, averaged over …. For chain 1 P8T, the screen value was 0.000116 average fractional NGS count over selection days 2 and 3 (reads of this peptide / all reads for the bait, averaged over ….
